# From PMC10733300, “ANKS1A regulates LDL receptor-related protein 1 (LRP1)-mediated cerebrovascular clearance in brain endothelial cells” (Nature Communications, 2023)
# Tested on: iBBB (human iPSC-derived BBB)
# Assay: Aβ(1–40) / Aβ(1–42) transcytosis and paracellular permeability assay, iBBB (transwell)
# Conditions: Cy3-labeled Aβ(1–40) added to the abluminal side, 20 nM, 37 °C, 1 h, fluorescence
# Description: For iBBBs, iPSC-derived brain endothelial cells (iECs) were dissociated by Accutase, resuspended with hECSR1 supplemented with 10 μM Y27632 and then seeded onto a 24-well Matrigel-coated Transwell at a density of 10^6 cells per cm^2 to complete a confluent monolayer for 24 h. Afterwards, the iPCs, iASs or MEFs were seeded on top of the iEC monolayer culture at a density of 5 × 10^4 cells per cm^2. The iBBBs were further cultured for 12 or 14 days.
# For analysis of bottom (apical) to top (basolateral) permeability, 500 μl of medium containing the fluorescent proteins was added to the lower chamber; for analysis of top to bottom permeability, 100 μl medium of the fluorescent proteins was added to the top chamber. Permeability assays were conducted at 37 °C for 1 h. Media from the bottom chamber or the top transwell insert were collected and analyzed by a fluorescence plate reader (Molecular Devices). The rationale for using the indicated final concentrations for each protein was that the levels of diffused or transcytosed proteins were within a detectable range via fluorescence.
substance,measurement,value
Aβ(1-40): Cy3-labeled amyloid beta (1–40) peptide used as fluorescent permeant at 20 nM in the BBB models,increase of permeability in WT iBBB compared to iECs co-cultured with MEFs,12%
